Results taken from patent publication US20210340273A1 (INHLBRX, published 2021).

Assays:
[1] = molecular target: T1, human 5T4 (trophoblast glycoprotein), endogenous on the cell surface (human, UniProt Q13641 32-420); experiment: flow cytometry, sdAb-Fc on 5T4 expressing T47D cells
T1 construct: also called TPBG; 5T4 oncofetal antigen
T1 sequence: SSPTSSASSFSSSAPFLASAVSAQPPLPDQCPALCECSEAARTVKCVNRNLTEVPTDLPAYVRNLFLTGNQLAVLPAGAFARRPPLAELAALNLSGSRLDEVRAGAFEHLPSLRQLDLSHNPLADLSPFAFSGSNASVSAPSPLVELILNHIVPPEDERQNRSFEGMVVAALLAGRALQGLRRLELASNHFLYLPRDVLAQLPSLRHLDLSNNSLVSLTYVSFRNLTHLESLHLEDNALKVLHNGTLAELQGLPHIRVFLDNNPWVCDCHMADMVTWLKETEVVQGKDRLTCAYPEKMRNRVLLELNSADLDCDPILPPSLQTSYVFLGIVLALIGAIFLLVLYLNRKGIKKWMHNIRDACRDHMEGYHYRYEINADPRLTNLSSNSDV

[2] = molecular target: T1, human 5T4 (trophoblast glycoprotein), …; experiment: flow cytometry (FL4H median), sdAb-Fc titrated on 5T4-positive T47D cells
Procedure: (§1) Specificity and relative affinity were assessed for purified sdAb-Fcs on 5T4-expressing cells. Binding of 5T4-sdAb-Fc fusion proteins was assessed by flow cytometry using 5T4-expressing cells. A titration series of the fusion protein was incubated with the 5T4-expressing cell lines (approximately 2.5×10⁴ to 5×10⁴ cells/well) for 30 minutes at 4 degrees Celsius in FACS Buffer (PBS 1% BSA, 0.1% NaN₃ pH 7.4) in 96 well plates. Following three wash steps in FACS buffer, an APC-conjugated anti-human Fcγ specific secondary antibody (Jackson ImmunoResearch) was added and incubated for 30 minutes at 4 degrees Celsius. Following three additional wash steps in FACS buffer bound antibody was detected via flow cytometry (IQue Intellicyte).
(§2) Humanized variant of the 5T4 sdAbs were tested for their ability to bind 5T4 expressing cells substantially as described in Example 2, and binding was compared to the parental sdAb. 5T4 expressing T47D cells were used in these studies. Results are shown in FIGS. 2A-2F, which confirm binding of the humanized variants. In some cases, binding was increased compared to the parental sdAb.

[3] = molecular target: T1, human 5T4 (trophoblast glycoprotein), …; experiment: flow cytometry (FL4), sdAb-Fc titrated on HEK-293 freestyle (293FS) cells endogenously expressing 5T4
Procedure: FIGS. 1A-B depict the ability of various single domain antibodies targeting 5T4 to bind cell surface 5T4. Binding was assessed by flow cytometry on HEK-293 freestyle cells endogenously expressing 5T4.
as §1

[4] = molecular target: T1, human 5T4 (trophoblast glycoprotein), …; experiment: flow cytometry (FL4H median), sdAb-Fc titrated on 5T4-positive T47D cells; remark: listed apart in the source
Procedure: as §1, §2

[5] = molecular target: T1, human 5T4 (trophoblast glycoprotein), …; experiment: as above; remark: listed apart in the source
Procedure: as §1, §2

[6] = molecular target: T1, human 5T4 (trophoblast glycoprotein), …; experiment: printed as Affinity 5T4; apparent affinity from flow cytometry titration on Ovcar-5 cells
Procedure: Binding of exemplary 5T4-targeting constrained CD3 engaging constructs set forth in Table E3 to CD3 on the surface of primary T cells and 5T4 expressing cells (Ovcar-5) was assessed by flow cytometry. The T cells were primary T-cells that were negatively enriched from PBMCs isolated from healthy human donor leukopaks. Bound construct was detected with fluorophore-conjugated secondary antibodies specific for the human Fc (anti-human IgG APC secondary antibody) and binding was measured by flow cytometry. Cells incubated with secondary antibody only served as negative controls. The results, from flow cytometry histograms displaying normalized cell counts versus fluorescence at 200 nM of each construct, are shown in FIG. 4A (cx3253), FIG. 4B (cx3264), FIG. 4C (cx3497), FIG. 4D (cx3499), FIG. 4E (cx3547), FIG. 4F (cx3546), FIG. 4G (cx4224), FIG. 4H (cx4913), FIG. 4I (cx3265), […] (cx4912), FIG. 4K (cx3262), FIG. 4L (cx4911), and FIG. 4M (cx4910). […] However, as shown in the top right and bottom panels of each of the figures, the same constructs were not able to bind to T cells in isolation.
Table E4 summarizes the affinity of exemplary molecules for 5T4 or CD3, as determined from flow cytometry, in these studies.

B1: hz14B5v2 sdAb-Fc (Fc fusion)
chain: EVQLVESGGGEVQPGGSLRLSCAASERPFGTYAMGWFRQAPGKERDLVAAVSRNGGASQYAESVKGRFTISRDNAKNTLYLQMSSLRAEDTAVYYCAARSAAYSRSSEVYTGKDEYYYWGQGTLVTVKP
notes: Humanized variant of 14B5, linked to a human Fc; not shown: human Fc
[1]
  binding result: binds

B2: hz14B5v20 sdAb-Fc (Fc fusion)
chain: EVQLVESGGGEVQPGGSLRLSCAASGRPFSSYAMGWFRQAPGKERDLVAAVSRNAGASYYAESVKGRFTISRDNAKNTVYLQMSSLRAEDTAVYYCAARSAAYSRSSEVYTGKDEYYYWGQGTLVTVKP
notes: as for B1
[1]
  binding result: binds

B3: hz14B5v19 sdAb-Fc (Fc fusion)
chain: EVQLVESGGGEVQPGGSLRLSCAASGRPFGTYAMGWFRQAPGKERDLVAAVSRNAGASYYAESVKGRFTISRDNAKNTVYLQMSSLRAEDTAVYYCAARSAAYSRSSEVYTGKDEYYYWGQGTLVTVKP
notes: as for B1
[1]
  binding result: binds

B4: hz14B5v16 sdAb-Fc (Fc fusion)
chain: EVQLVESGGGEVQPGGSLRLSCAASERPFGTYAMGWFRQAPGKERDLVAAVSRNAGASQYGEFVKGRFTISRDNAKNTMYLQMSSLRAEDTAVYYCAARSAAYSRSSEVYTGKDEYYYWGQGTLVTVKP
notes: as for B1
[2]
  EC50 (read off the curve): ~2 nM

B5: hz14B5v18 sdAb-Fc (Fc fusion)
chain: EVQLVESGGGEVQPGGSLRLSCAASERPFSSYAMGWFRQAPGKERDLVAAVSRNAGASYYAESVKGRFTISRDNAKNTVYLQMSSLRAEDTAVYYCAARSAAYSRSSEVYTGKDEYYYWGQGTLVTVKP
notes: as for B1
[1]
  binding result: binds

B6: 7E1 sdAb-Fc (Fc fusion, not shown: a dimerising Fc or GST)
chain: QVQLVQSGGGLVQAGASLRLSCVASGRTRSLRTMAWFRQAPGKERIFVAAISWRSDSTYYADSVKGRFTISRDNAKNTAYLQMNTLKPEDTAVYYCAAGGGWLATTPDEYTYWGQGTLVTVKP
notes: Camelid derived sdAb tested as sdAb-Fc
[3]
  EC50 (read off the curve): ~0.2 nM

B7: 4D3 sdAb-Fc (Fc fusion, not shown: a dimerising Fc or GST)
chain: QVQLQESGGGLVQAGGSLRLSCAASRRPFSSKTMAWFRQTPGKEREFVAAVRWIGGATRYTDSVKGRFSISKDNAINTVYLQTNSLKSEDTAVYYCAAGQTWGTKFTDYSDWGQGTLVTVKP
notes: as for B6
[3]
  EC50 (read off the curve): ~0.2 nM

B8: 12E9 sdAb-Fc (Fc fusion, not shown: a dimerising Fc or GST)
chain: QVQLVQSGGGLVQAGGSLRLSCAASRRPFSSKTMAWFRQTPGKEREFVAAVRWIGGATRYTDSVKGRFSISKDNAINTVYLQMNSLKSEDTAVYYCAAGQAWGTKFTDYSDWGQGTQVTVKP
notes: Camelid derived sdAb tested as sdAb-Fc; also called L12E9; 12E9-Fc
[3]
  EC50 (read off the curve): ~0.1 nM
[4]
  EC50 (read off the curve): ~0.2 nM
[5]
  EC50 (read off the curve): ~0.1 nM

B9: 14B5 sdAb-Fc (Fc fusion, not shown: a dimerising Fc or GST)
chain: QVQLVQSGGGLVQAGDSLTLSCAVSERPFGTYAMGWFRQAPGRERDLVAAVSRNGGASQYGDSVKGRFSISRDNIKNTMYLQMNSLKPEDTAVYYCAARSAAYSRSSEVYTGKDEYYYWGQGTQVTVKP
notes: Camelid derived sdAb tested as sdAb-Fc; also called L14B5
[3]
  EC50 (read off the curve): ~0.5 nM
[2]
  EC50 (read off the curve): ~0.8 nM
[4]
  EC50 (read off the curve): ~0.4 nM

B10: 16G10 sdAb-Fc (Fc fusion, not shown: a dimerising Fc or GST)
chain: QVQLLQSGGGLVQAGGSLILSCAVSGRPFSSSAMGWFRQAPGKERETVAAVSRNGGSSYYADFVKGRFTISRDNDKNTVYLQMNSLKPEDTAVYYCAARSAAYSRSSETYTEKHDYTYWGQGTQVTVKP
notes: Camelid derived sdAb tested as sdAb-Fc; also called L16G10
[3]
  EC50 (read off the curve): ~1 nM
[4]
  EC50 (read off the curve): ~0.9 nM

B11: hz12E9v5 sdAb-Fc (Fc fusion)
chain: EVQLVESGGGEVQPGGSLRLSCAASRRPFSSKTMAWFRQAPGKEREFVAAVRWIGGATRYTESVKGRFTISRDNAKNTLYLQMSSLRAEDTAVYYCAAGQAWGTKFTDYSDWGQGTLVTVKP
notes: Humanized variant of 12E9, linked to a human Fc; not shown: human Fc
[5]
  EC50 (read off the curve): ~0.1 nM

B12: hz12E9v8 sdAb-Fc (Fc fusion)
chain: EVQLVESGGGEVQPGGSLRLSCAASRRPFSSKTMAWFRQAPGKEREFVAAVRWIGGATRYAESVKGRFTISRDNAINTVYLQMNSLKSEDTAVYYCAAGQAWGTKFTDYSDWGQGTLVTVKP
notes: as for B11
[5]
  EC50 (read off the curve): ~0.1 nM

B13: hz12E9v7 sdAb-Fc (Fc fusion)
chain: EVQLVESGGGEVQPGGSLRLSCAASRRPFSSKTMAWFRQAPGKEREFVAAVRWIGGATRYTDSVKGRFSISKDNAKNTVYLQMSSLRAEDTAVYYCAAGQAWGTKFTDYSDWGQGTLVTVKP
notes: as for B11
[5]
  EC50 (read off the curve): ~0.1 nM

B14: 14F4 sdAb-Fc (Fc fusion, not shown: a dimerising Fc or GST)
chain: QVQLQESGGGLMQAGDSLRLSCVVSGVTWNSYTMAWFRQAPGKEREFVAAIRWTVDTTYYADFVKGRFTISRDYAKKTMYLQMNNLKPEDAAVYYCAVGRKWPKADDYWGQGTLVTVKP
notes: as for B6
[3]
  EC50 (read off the curve): ~1 nM

B15: cx3253, 5T4-targeted constrained CD3 engaging construct with a 41BB binding domain (bispecific antibody)
chain 1: QVQLVQSGGGLVQAGGSLRLSCAASRRPFSSKTMAWFRQTPGKEREFVAAVRWIGGATRYTDSVKGRFSISKDNAINTVYLQMNSLKSEDTAVYYCAAGQAWGTKFTDYSDWGQGTQVTVKPDKTHTCPPCPAPELLGGPSVFLFPPKPKDTLMISRTPEVTCVVVDVSHEDPEVKFNWYVDGVEVHNAKTKPREEQYNSTYRVVSVLTVLHQDWLNGKEYKCKVSNKALPAPIEKTISKAKGQPREPQVYTLPPCRDELTKNQVSLWCLVKGFYPSDIAVEWESNGQPENNYKTTPPVLDSDGSFFLYSKLTVDKSRWQQGNVFSCSVMHEALHNHYTQKSLSLSPTGGSGGGGIEPDIGGSGGSEVQLVESGGGLVQPGGSLRLSCAASGFTFNTYAMNWVRQAPGKCLEWVARIRSKYNNYATYYADSVKGRFTISRDDAKNTLYLQMSSLRAEDTAVYYCVRHGNFGNSYVSWFAYWGQGTLVTVKPQVQLVQSGGGLVQAGASLRLSCVASGRTRSLRTMAWFRQAPGKERIFVAAISWRSDSTYYADSVKGRFTISRDNAKNTAYLQMNTLKPEDTAVYYCAAGGGWLATTPDEYTYWGQGTLVTVKP
chain 2: not shown
notes: Heterodimeric multispecific construct (5T4 x CD3 x 41BB)
[6]
  Kd: 0.12 nM

B16: hz16G10v7 sdAb-Fc (Fc fusion)
chain: EVQLVESGGGEVQPGGSLRLSCAASGRPFSSSAMGWFRQAPGKERETVAAVSRNTGSSYYAESVKGRFTISRDNAKNTVYLQMSSLRAEDTAVYYCAARSAAYSRSSETYTEKHDYTYWGQGTLVTVKP
notes: Humanized variant of 16G10, linked to a human Fc; not shown: human Fc
[1]
  binding result: binds

B17: hz16G10v10 sdAb-Fc (Fc fusion)
chain: EVQLVESGGGEVQPGGSLRLSCAASGRPFSSSAMGWFRQAPGKERETVAAVSRNAGSSYYADFVKGRFTISRDNAKNTVYLQMSSLRAEDTAVYYCAARSAAYSRSSETYTEKHDYTYWGQGTLVTVKP
notes: as for B16
[1]
  binding result: binds
